Among the data in PMC3634489 are percent of total HC in the sIgA complex and percent of total IgA content as sIgA values, retold here.

Some results are limits rather than exact numbers.

Experiment [1] has as its target 2A1 IgA of the combination HCα1-LCλ-JC (heavy chain α1 without KDEL, λ light chain, co-expressed J chain) (human) (UniProt P01591). Description: ELISA.
For experiment [2] the target is unchanged. In words: ELISA; […]) capture antibody, […]. (In an ELISA, binding on a coated surface is turned into a signal by an enzyme label.)
Experiment [3] shares this target. In words: SEC.

UniProt P01591, sequence (P01591 whole entry, looked up): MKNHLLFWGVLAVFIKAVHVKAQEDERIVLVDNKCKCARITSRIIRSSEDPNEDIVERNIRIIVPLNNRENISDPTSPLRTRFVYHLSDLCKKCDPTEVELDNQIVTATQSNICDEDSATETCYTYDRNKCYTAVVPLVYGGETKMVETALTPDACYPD

As for “secretory component with a C-terminal KDEL signal (SCkdel) (from UniProt P01833 19-638) (domain or fragment)”, the percent of total HC in the sIgA complex was 21% in experiment [1] and over 33% in experiment [2]. In addition, the percent of total IgA content as sIgA in experiment [3] was determined as 20%.
